In test [1] the target is T1, thermolysin from B. thermoproteolyticus Rokko (Bacillus thermoproteolyticus Rokko, UniProt P00800 233-548).
T1 sequence (looked up): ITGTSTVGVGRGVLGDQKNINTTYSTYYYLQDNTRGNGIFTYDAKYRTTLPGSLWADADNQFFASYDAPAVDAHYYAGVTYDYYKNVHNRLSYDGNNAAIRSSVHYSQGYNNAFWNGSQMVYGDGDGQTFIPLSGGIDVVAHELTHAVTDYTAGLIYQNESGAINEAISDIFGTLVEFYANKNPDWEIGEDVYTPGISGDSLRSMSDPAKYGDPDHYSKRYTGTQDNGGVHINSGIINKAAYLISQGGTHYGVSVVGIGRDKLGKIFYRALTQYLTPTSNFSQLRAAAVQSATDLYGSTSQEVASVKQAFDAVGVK
The experiment in a line: cell-based or functional assay.

Test [2] deals with T2, aureolysin isoform I, mature catalytic domain (A209–E509) (Staphylococcus aureus (strain V8-BC10), UniProt P81177 209-509).
T2 sequence (looked up): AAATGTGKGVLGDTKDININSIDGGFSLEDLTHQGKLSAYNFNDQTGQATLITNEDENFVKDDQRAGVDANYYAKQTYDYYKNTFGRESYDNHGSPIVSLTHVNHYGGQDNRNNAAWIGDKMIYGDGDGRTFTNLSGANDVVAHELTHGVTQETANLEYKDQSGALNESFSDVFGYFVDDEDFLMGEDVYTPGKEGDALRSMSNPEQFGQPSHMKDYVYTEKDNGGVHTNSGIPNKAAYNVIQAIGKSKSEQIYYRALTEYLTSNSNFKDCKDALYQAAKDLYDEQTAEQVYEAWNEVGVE
As to the kind of experiment: enzyme inhibition assay.

This note sets out measurements from paper PMC9002140 (Computational and Structural Biotechnology Journal, 2022).

Positions count from the first letter of the chain named. Numbers in names are those of the source.

B1: R58E-IMPI (natural protein, Galleria mellonella)
chain: GMSIVLICNGGHEYYECGGACDNVCADLHIQNKTNCPIINIECNDKCYCEDGYARDVNGKCIPIKDCPKIRS
Take B1: the “inhibition of thermolysin, against the wild type” value in test [1] was about 200 fold.

B2: I57F-IMPI (natural protein, Galleria mellonella)
chain: B1 chain with I41F, E42R
For B2, the inhibitory constant (Ki) in test [2] was 0.346 µM.

A word on the Ki: it is the dissociation constant of the complex between target and ligand, obtained from inhibition or displacement. High values mean weaker binding, low ones tighter binding.
